Source: patent US20220227829A1 (SHANGHAI GP BIOTECH, published 2022)

Columns and labels:
[1] = biological target: T1, CD25 on the surface of CTLL-2 cells (mouse cytotoxic T lymphocyte cell line) (mouse, UniProt P01590 22-268); experiment: cell-based or functional assay
T1 sequence (looked up): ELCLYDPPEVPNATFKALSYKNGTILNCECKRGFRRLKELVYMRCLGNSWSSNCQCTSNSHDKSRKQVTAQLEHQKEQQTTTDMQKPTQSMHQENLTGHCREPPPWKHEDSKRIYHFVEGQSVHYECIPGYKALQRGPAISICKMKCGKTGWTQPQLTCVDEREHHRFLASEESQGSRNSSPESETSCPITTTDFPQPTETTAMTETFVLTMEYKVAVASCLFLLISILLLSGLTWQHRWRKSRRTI

[2] = biological target: T2, CD25 protein (from Example 2); experiment: ELISA on coated CD25, sample at 1 ug/ml, relative to rhIL-2 = 100%
T2 chain: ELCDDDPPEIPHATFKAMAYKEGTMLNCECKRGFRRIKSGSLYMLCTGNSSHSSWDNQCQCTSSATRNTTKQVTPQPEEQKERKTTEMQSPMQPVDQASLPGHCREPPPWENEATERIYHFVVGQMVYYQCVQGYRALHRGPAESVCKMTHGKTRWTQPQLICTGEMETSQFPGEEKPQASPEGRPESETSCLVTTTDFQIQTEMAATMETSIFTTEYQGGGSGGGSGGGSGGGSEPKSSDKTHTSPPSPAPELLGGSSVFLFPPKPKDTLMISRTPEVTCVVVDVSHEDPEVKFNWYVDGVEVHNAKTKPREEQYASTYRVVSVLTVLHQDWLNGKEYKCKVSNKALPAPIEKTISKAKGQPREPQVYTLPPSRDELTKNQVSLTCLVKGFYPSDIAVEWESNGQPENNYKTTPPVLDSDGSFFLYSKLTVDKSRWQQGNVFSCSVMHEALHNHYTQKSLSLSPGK
Description: (§1) CD25 (from Example 2) was coated on a 96-well high adsorption microtiter plate (3590, Costar), washed and blocked. The sample to be tested was diluted to an appropriate concentration and added to wells.

[3] = biological target: T2, CD25 protein (from Example 2); experiment: ELISA on coated CD25, sample at 0.04 ug/ml, relative to rhIL-2 = 100%
Description: as §1

[4] = biological target: T2, CD25 protein (from Example 2); experiment: ELISA on coated CD25
Description: as §1

[5] = biological target: T2, CD25 protein (from Example 2); experiment: ELISA on coated CD25, sample at 0.2 ug/ml, relative to rhIL-2 = 100%
Description: as §1

[6] = biological target: T3, CD25 on the surface of NK92 cells (human NK cell line) (human, UniProt P01589 22-272); experiment: cell-based or functional assay
T3 sequence (looked up): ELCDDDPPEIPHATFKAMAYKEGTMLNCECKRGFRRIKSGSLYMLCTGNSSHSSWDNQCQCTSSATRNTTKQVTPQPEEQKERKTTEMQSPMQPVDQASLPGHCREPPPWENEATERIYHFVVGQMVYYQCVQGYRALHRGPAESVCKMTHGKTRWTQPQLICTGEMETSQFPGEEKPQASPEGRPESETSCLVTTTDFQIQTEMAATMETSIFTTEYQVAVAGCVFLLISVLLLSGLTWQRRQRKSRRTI

Binding activity (%) [2] [%]	Binding activity (%) [3] [%]	binding result [4]	Binding activity (%) [5] [%]	EC50 (nM), NK92 cell proliferation [6] [nM]	Potency relative to rhIL-2 (%), NK92 cell proliferation [6] [%]	Binder	EC50 (nM), CTLL-2 cell proliferation [1] [nM]	Potency relative to rhIL-2 (%), CTLL-2 cell proliferation [1] [%]
2.77	1.97	–	1.48	0.296	0.653	IL-2gm12 (T3A, A73T, D109N), HIS tag (ligand, Expressed in Expi293F cells; also called IL-2gm12-His) APASSSTKKTQLQLEHLLLDLQMILNGINNYKNPKLTRMLTFKFYMPKKATELKHLQCLEEELKPLEEVLNLTQSKNFHLRPRDLISNINVIVLELKGSETTFMCEYANETATIVEFLNRWITFAQSIISTLTHHHHHH	0.156	1.86
2.23	1.51	–	1.18	0.293	0.661	IL-2gm13 (T3A, K49N, A73T, D109N), HIS tag (ligand, Expressed in Expi293F cells; also called IL-2gm13-His) APASSSTKKTQLQLEHLLLDLQMILNGINNYKNPKLTRMLTFKFYMPKNATELKHLQCLEEELKPLEEVLNLTQSKNFHLRPRDLISNINVIVLELKGSETTFMCEYANETATIVEFLNRWITFAQSIISTLTHHHHHH	0.144	2.01
8.1	1.82	–	2.96	0.557	0.347	IL-2gm7 (T3A, D109N), HIS tag (ligand, Expressed in Expi293F cells; also called IL-2gm7-His) APASSSTKKTQLQLEHLLLDLQMILNGINNYKNPKLTRMLTFKFYMPKKATELKHLQCLEEELKPLEEVLNLAQSKNFHLRPRDLISNINVIVLELKGSETTFMCEYANETATIVEFLNRWITFAQSIISTLTHHHHHH	0.365	0.794
0.88	1.51	no binding (tested: 1 ug/ml)	1.08	12.7	0.015	IL-2gm10 (T3A, M39N, D109N), HIS tag (ligand, Expressed in Expi293F cells; also called IL-2gm10-His) APASSSTKKTQLQLEHLLLDLQMILNGINNYKNPKLTRNLTFKFYMPKKATELKHLQCLEEELKPLEEVLNLAQSKNFHLRPRDLISNINVIVLELKGSETTFMCEYANETATIVEFLNRWITFAQSIISTLTHHHHHH	15.6	0.019
0.74	1.51	no binding (tested: 1 ug/ml)	0.99	8.91	0.022	IL-2gm8 (T3A, M39N, K49N), HIS tag (ligand, Expressed in Expi293F cells; also called IL-2gm8-His) APASSSTKKTQLQLEHLLLDLQMILNGINNYKNPKLTRNLTFKFYMPKNATELKHLQCLEEELKPLEEVLNLAQSKNFHLRPRDLISNINVIVLELKGSETTFMCEYADETATIVEFLNRWITFAQSIISTLTHHHHHH	8.84	0.033
31	16.6	–	31.3	0.112	1.72	IL-2gm2 (T3A, K49N), HIS tag (ligand, Expressed in Expi293F cells; also called IL-2gm2-His) APASSSTKKTQLQLEHLLLDLQMILNGINNYKNPKLTRMLTFKFYMPKNATELKHLQCLEEELKPLEEVLNLAQSKNFHLRPRDLISNINVIVLELKGSETTFMCEYADETATIVEFLNRWITFAQSIISTLTHHHHHH	0.0638	4.55
12.5	2.42	–	5.03	0.28	0.69	IL-2gm11 (T3A, K49N, D109N), HIS tag (ligand, Expressed in Expi293F cells; also called IL-2gm11-His) APASSSTKKTQLQLEHLLLDLQMILNGINNYKNPKLTRMLTFKFYMPKNATELKHLQCLEEELKPLEEVLNLAQSKNFHLRPRDLISNINVIVLELKGSETTFMCEYANETATIVEFLNRWITFAQSIISTLTHHHHHH	0.0349	8.31

More lines, now with the values behind:

Binder	Binding activity (%) [2] [%]	Binding activity (%) [3] [%]	binding result [4]	Binding activity (%) [5] [%]	EC50 (nM), NK92 cell proliferation [6] [nM]	Potency relative to rhIL-2 (%), NK92 cell proliferation [6] [%]	EC50 (nM), CTLL-2 cell proliferation [1] [nM]	Potency relative to rhIL-2 (%), CTLL-2 cell proliferation [1] [%]
IL-2gm6 (T3A, M39N, K49N, A73T, D109N), HIS tag (ligand, Expressed in Expi293F cells; also called IL-2gm6-His) APASSSTKKTQLQLEHLLLDLQMILNGINNYKNPKLTRNLTFKFYMPKNATELKHLQCLEEELKPLEEVLNLTQSKNFHLRPRDLISNINVIVLELKGSETTFMCEYANETATIVEFLNRWITFAQSIISTLTHHHHHH	0.88	1.36	no binding (tested: 1 ug/ml)	1.08	7.08	0.027	51.5	0.006
IL-2gm9 (T3A, M39N, A73T), HIS tag (ligand, Expressed in Expi293F cells; also called IL-2gm9-His) APASSSTKKTQLQLEHLLLDLQMILNGINNYKNPKLTRNLTFKFYMPKKATELKHLQCLEEELKPLEEVLNLTQSKNFHLRPRDLISNINVIVLELKGSETTFMCEYADETATIVEFLNRWITFAQSIISTLTHHHHHH	0.88	1.51	no binding (tested: 1 ug/ml)	1.18	1.07	0.181	2.38	0.122
IL-2gm1 (T3A, M39N), HIS tag (ligand, Expressed in Expi293F cells with a leader peptide; M39N is meant to make an N-glycosylation site; also called IL-2gm1-His) APASSSTKKTQLQLEHLLLDLQMILNGINNYKNPKLTRNLTFKFYMPKKATELKHLQCLEEELKPLEEVLNLAQSKNFHLRPRDLISNINVIVLELKGSETTFMCEYADETATIVEFLNRWITFAQSIISTLTHHHHHH	0.88	1.66	no binding (tested: 1 ug/ml)	1.08	38.5	0.005	83.4	0.003
IL-2gm5 (T3A, M39N, K49N, A73T), HIS tag (ligand, Expressed in Expi293F cells; also called IL-2gm5-His) APASSSTKKTQLQLEHLLLDLQMILNGINNYKNPKLTRNLTFKFYMPKNATELKHLQCLEEELKPLEEVLNLTQSKNFHLRPRDLISNINVIVLELKGSETTFMCEYADETATIVEFLNRWITFAQSIISTLTHHHHHH	0.88	1.51	no binding (tested: 1 ug/ml)	1.08	20.7	0.009	8.22	0.035
IL-2gm4 (T3A, K49N, A73T), HIS tag (ligand, Expressed in Expi293F cells; also called IL-2gm4-His) APASSSTKKTQLQLEHLLLDLQMILNGINNYKNPKLTRMLTFKFYMPKNATELKHLQCLEEELKPLEEVLNLTQSKNFHLRPRDLISNINVIVLELKGSETTFMCEYADETATIVEFLNRWITFAQSIISTLTHHHHHH	14.8	3.18	–	7.5	0.234	0.828	0.0906	3.2
IL-2gm3 (T3A, A73T) or (T3A, A73S), HIS tag (ligand, also called IL-2gm3-His) APASSSTKKTQLQLEHLLLDLQMILNGINNYKNPKLTRMLTFKFYMPKKATELKHLQCLEEELKPLEEVLNLTQSKNFHLRPRDLISNINVIVLELKGSETTFMCEYADETATIVEFLNRWITFAQSIISTLTHHHHHH	10.3	2.27	–	5.62	2.21	0.088	0.165	1.76
